# Experimental data reported in patent US20240181022A1, “AMURINS LYSINS, AND LYSIN-ANTIMICROBIAL PEPTIDE (AMP) CONSTRUCTS ACTIVE AGAINST GRAM-NEGATIVE BACTERIA” (priority 2021, published 2024).
# B1: GN370: lysin-AMP construct, SEQ ID NO: 149: MIDR, FIRL and NPTH moieties N-terminal to GN202 lysin (protein)
# chain: MIDRFIRLNPTHGPRRPRRPGRRAPVRTSQRGIDLIKSFEGLRLSAYQDSVGVWTIGYGTTRGVTRYMTITVEQAERMLSNDIQRFEPELDRLAKVPLNQNQWDALMSFVYNLGAANLASSTLLDLLNKGDYQGAADQFPHWVNAGGKRLDGLVKRRAAERALFLEPLS
# modifications: GN370 lysin
# Legend:
# [1] = tested on: E. coli; assay: Checkerboard synergy assay (FICI) against E. coli; type: cell-based, Escherichia coli; settings: E. coli ATCC 25922
# Text: In some embodiments, the Chp peptides disclosed herein or active fragments thereof reduce the minimum inhibitory concentration (MIC) of an antibiotic in the presence and/or absence of human serum, pulmonary surfactant, and/or sputum, including human sputum and human sputum from a cystic fibrosis patient. Any known method to assess MIC may be used. In some embodiments, a checkerboard assay is used to determine the effect of a Chp peptide or active fragment thereof on antibiotic concentration. The checkerboard assay is based on a modification of the CLSI method for MIC determination by broth microdilution (See Clinical and Laboratory Standards Institute (CLSI), CLSI. 2015. Methods for Dilution Antimicrobial Susceptibility Tests for Bacteria That Grow Aerobically; Approved Standard-10th Edition. Clinical and Laboratory Standards Institute, Wayne, PA, which is herein incorporated by reference in its entirety and Ceri et al. 1999. J. Clin. Microbiol. 37: 1771-1776, which is also herein incorporated by reference in its entirety).
# Checkerboards are constructed by first preparing columns of e.g., a 96-well polypropylene microtiter plate, wherein each well has the same amount of antibiotic diluted 2-fold along the horizontal axis. […] The Chp peptide or active fragment thereof and antibiotic dilutions are then combined, so that each column has a constant amount of antibiotic and doubling dilutions of Chp peptide, while each row has a constant amount of Chp peptide and doubling dilutions of antibiotic. Each well thus has a unique combination of Chp peptide and antibiotic. Bacteria are added to the drug combinations at concentrations of 1×10^5 GFU/ml in CAA, for example, with or without human serum or pulmonary surfactant. […] Summation fractional inhibitory concentrations (ΣFICs) are calculated for each drug and the minimum ΣFIC value (ΣFICmin) is used to determine the effect of the Chp peptide/antibiotic combination.
# (§1) GN370 was further tested in combination with up to seven additional antibiotics (in addition to meropenem) against a variety of bacterial strains, including P. aeruginosa, A. baumannii, E. coli, E. cloacae, and K. pneumoniae. GN370 and the subject antibiotics were tested in a checkerboard assay format, and FICI values were determined, wherein ≤0.5 indicates synergy, >0.5-≤1 indicates additive; and >1 indicates indifferent.
# [2] = tested on: E. cloacae; assay: Checkerboard synergy assay (FICI) against E. cloacae; type: cell-based, Enterobacter cloacae; settings: E. cloacae ATCC 13047
# Procedure: (§2) Any known method to assess MIC may be used.
# (§3) Checkerboards are constructed by first preparing columns of e.g., a 96-well polypropylene microtiter plate, wherein each well has the same amount of antibiotic diluted 2-fold along the horizontal axis. […] Bacteria are added to the drug combinations at concentrations of 1×10^5 […] in CAA, for example, with or without human serum or pulmonary surfactant. […] Summation fractional inhibitory concentrations (ΣFICs) are calculated for each drug and the minimum ΣFIC value (ΣFICmin) is used to determine the effect of the Chp peptide/antibiotic combination.
# as §1
# [3] = tested on: A. baumannii; assay: Checkerboard synergy assay (FICI) against A. baumannii; type: cell-based, Acinetobacter baumannii; settings: A. baumannii ATCC BAA-747
# Procedure: as §2, §3, §1
# [4] = tested on: Ralstonia mannitolilytica; assay: MIC by broth microdilution against Ralstonia mannitolilytica; type: cell-based; settings: N 10
# Procedure: (§4) MIC values were determined by broth microdilution against clinical isolates and resistant isolates from a wide range of bacterial species, including isolates from the CDC Antibiotic Resistance bank, including the GN ESKAPE pathogens and E. coli, including carbapenem-resistant Enterobacteriaciae, Acinetobacter, and Pseudomonas.
# [5] = tested on: E. cloacae; assay: MIC by broth microdilution against E. cloacae; type: cell-based, Enterobacter cloacae
# [6] = tested on: A. baumannii; assay: GN370 time-kill assay, A. baumannii; type: cell-based, Acinetobacter baumannii; settings: for Log10 CFU/mL: A. baumannii ATCC BAA 747
# Procedure: (§5) A kinetic analysis of GN370 bactericidal activity was performed using a time-kill assay format in which CFU reductions of each target organism (P. aeruginosa, K. pneumoniae, A. baumannii, E. coli, and E. cloacae) were measured over 24 hours at 37° C. […] Bactericidal activity was defined as CFU reductions of ≥3-log 10 CFU/mL as compared to the inoculum at the 24-hour time point.
# [7] = tested on: Kluyvera ascorbate; assay: MIC by broth microdilution against Kluyvera ascorbate; type: cell-based; settings: N 1
# Procedure: as §4
# [8] = tested on: Klebsiella oxytoca; assay: MIC by broth microdilution against Klebsiella oxytoca; type: cell-based; settings: N 1
# Procedure: as §4
# [9] = tested on: A. baumannii (ATCC BAA-747); assay: microbe, parasite or virus in culture; type: cell-based, Acinetobacter baumannii
# [10] = tested on: Gram-negative bacteria biofilm; assay: Antibiofilm activity (MBEC) against Gram-negative bacteria, incl. MDR and XDR isolates; type: cell-based; settings: range of MDR and XDR isolates
# [11] = tested on: E. cloacae; assay: GN370 time-kill assay, E. cloacae; type: cell-based, Enterobacter cloacae; settings: for Log10 CFU/mL: E. cloacae ATCC 29941
# Procedure: as §5
# [12] = tested on: E. cloacae; assay: MBEC against E. cloacae biofilm; type: cell-based, Enterobacter cloacae; settings: MDR and XDR E. cloacae (14)
# [13] = Enterobacter cloacae, AR Bank, N 7
# [14] = Enterobacter cloacae, Weill Cornell, N 30
# [15] = Enterobacter cloacae, all isolates, N 37
molecule,measurement,setting,value
"C[C@@H](O)[C@H]1C(=O)N2C(C(=O)O)=C(S[C@@H]3CN[C@H](C(=O)N(C)C)C3)[C@H](C)[C@H]12 [meropenem, reference compound]",FICI of the antibiotic with GN370,[1],0.5
same,FICI of the antibiotic with GN370,[2],0.531
same,FICI of the antibiotic with GN370,[3],0.5
B1,MIC50,[4],>64 µg/mL
same,MIC90,[4],>64 µg/mL
same,MIC Range,[4],>64 µg/mL
same,MIC,[5]; E. cloacae ATCC 13047 (head of Table 19),2 µg/mL
same,MIC,[5]; E. cloacae ATCC 29941,(MIC = 2 μg/mL)
same,MIC90,[5]; E. cloacae clinical and resistant isolates,4 µg/mL
same,MIC50,[5]; [13],1 µg/mL
same,MIC90,[5]; [13],4 µg/mL
same,MIC Range,[5]; [13],0.25 to 8 µg/mL
same,MIC50,[5]; [14],2 µg/mL
same,MIC90,[5]; [14],4 µg/mL
same,MIC Range,[5]; [14],0.25 to 8 µg/mL
same,MIC50,[5]; [15],1 µg/mL
same,MIC90,[5]; [15],4 µg/mL
same,MIC Range,[5]; [15],0.016 to 8 µg/mL
same,Log10 CFU/mL,"[6]; 0.2x MIC, 1 hr",3.8 Log10 CFU/mL
same,Log10 CFU/mL,"[6]; 0.2x MIC, 3 hr",4.0 Log10 CFU/mL
same,Log10 CFU/mL,"[6]; 0.2x MIC, 24 hr",5.8 Log10 CFU/mL
same,Log10 CFU/mL,"[6]; 1x MIC, 1 hr",1.5 Log10 CFU/mL
same,Log10 CFU/mL,"[6]; 1x MIC, 3 hr",1.5 Log10 CFU/mL
same,Log10 CFU/mL,"[6]; 1x MIC, 24 hr",1.5 Log10 CFU/mL
same,Log10 CFU/mL,"[6]; 2x MIC, 1 hr",1.5 Log10 CFU/mL
same,Log10 CFU/mL,"[6]; 2x MIC, 3 hr",1.5 Log10 CFU/mL
same,Log10 CFU/mL,"[6]; 2x MIC, 24 hr",1.5 Log10 CFU/mL
same,Log10 CFU/mL,"[6]; 5x MIC, 1 hr",1.5 Log10 CFU/mL
same,Log10 CFU/mL,"[6]; 5x MIC, 3 hr",1.5 Log10 CFU/mL
same,Log10 CFU/mL,"[6]; 5x MIC, 24 hr",1.5 Log10 CFU/mL
same,concentration with bactericidal activity (≥3-log 10 CFU/mL reduction at 24 hours),"[6]; A. baumannii, 37° C.",≥ 1 ×MIC
same,MIC Range,[7],1 µg/mL
same,MIC Range,[8],4 µg/mL
same,change in MIC over 28-day serial passage,[9]; A. baumannii (ATCC BAA-747),No change
same,MIC,"[9]; A. baumannii ATCC BAA-747, target organism of serial passage study",1 µg/mL
same,MBEC,[10],≤ 4 µg/mL
same,Log10 CFU/mL,"[11]; 0.2x MIC, 1 hr",5.0 Log10 CFU/mL
same,Log10 CFU/mL,"[11]; 0.2x MIC, 3 hr",5.0 Log10 CFU/mL
same,Log10 CFU/mL,"[11]; 0.2x MIC, 24 hr",9.0 Log10 CFU/mL
same,Log10 CFU/mL,"[11]; 1x MIC, 1 hr",2.4 Log10 CFU/mL
same,Log10 CFU/mL,"[11]; 1x MIC, 3 hr",1.5 Log10 CFU/mL
same,Log10 CFU/mL,"[11]; 1x MIC, 24 hr",2.3 Log10 CFU/mL
same,Log10 CFU/mL,"[11]; 2x MIC, 1 hr",1.6 Log10 CFU/mL
same,Log10 CFU/mL,"[11]; 2x MIC, 3 hr",1.6 Log10 CFU/mL
same,Log10 CFU/mL,"[11]; 2x MIC, 24 hr",1.6 Log10 CFU/mL
same,Log10 CFU/mL,"[11]; 5x MIC, 1 hr",1.5 Log10 CFU/mL
same,Log10 CFU/mL,"[11]; 5x MIC, 3 hr",1.5 Log10 CFU/mL
same,Log10 CFU/mL,"[11]; 5x MIC, 24 hr",1.5 Log10 CFU/mL
same,concentration with bactericidal activity (≥3-log 10 CFU/mL reduction at 24 hours),"[11]; E. cloacae, 37° C.",≥ 1 ×MIC
same,MBEC50,[12],1 µg/mL
same,MBEC90,[12],2 µg/mL
same,MBEC Range,[12],0.5 to 2 µg/mL
same,Number of isolates at MBEC 0.5 μg/mL,[12],1
same,Number of isolates at MBEC 1 μg/mL,[12],9
same,Number of isolates at MBEC 2 μg/mL,[12],4
